The values below come from the Immune Epitope Database (IEDB).

What all share (experiment): IEDB peptide-MHC binding, purified MHC/competitive/radioactivity; filed as Kd, often an IC50 or EC50 that approximates it; ≥ and ≤ were set here for values at or beyond the usual limits of such assays
Assay [1] concerns the target HLA-A*02:02.
In assay [2] the target is HLA-A*02:06.
Assay [3] deals with HLA-A*02:03.
The target in assay [4] is HLA-A*31:01.
Assay [5] concerns the target HLA-A*11:01.
For assay [6], the target named is HLA-A*03:01.
Assay [7] has as its target HLA-A*33:01.
The target of assay [8] is HLA-A*68:01.
[9] abbreviates: source organism: SARS coronavirus Tor2.
Where [10] appears, read: source organism: Vaccinia virus WR.
Where [11] appears, read: source organism: Dengue virus 2 Jamaica/1409/1983.
Setting [12] is: source organism: Dengue virus 1 Brazil/97-11/1997.
Setting [13] is: source organism: Mammarenavirus brazilense.
The mark [14] stands for this setting: source organism: Mammarenavirus whitewaterense.
The mark [15] stands for this setting: source organism: Lassa virus Josiah.
Where [16] appears, read: source organism: Variola major virus.
The mark [17] stands for this setting: source organism: Mammarenavirus juninense.

Take FLAFVVFLL: the figures for the Kd in assay [1] (setting [9]), in assay [2] (setting [9]) and in assay [3] (setting [9]) were 0.411 nM, 2.57 nM and 87.9 nM, respectively.
For the sequence GLTADARLL, the Kd in assay [3] (source organism: Homo sapiens) came to 362 nM.
For SLGLILLKIV, the dissociation constant Kd in assay [3] (source organism: Dengue virus 4 Dominica/814669/1981) amounted to 14.7 nM.
For the sequence QILDNAAKYV, the Kd came out at 3930 nM in assay [1] (setting [10]), 11400 nM in assay [2] (setting [10]) and 3870 nM in assay [3] (setting [10]).
Take LLAIGCYSQV: the Kd in assay [3] (setting [11]) was 8.28 nM.
As for SQVNPLTLTA, the dissociation constant (Kd) in assay [2] (setting [12]) was determined as 167 nM.
As to TMLDVDLRPA, the dissociation constant (Kd) in assay [2] (source organism: Dengue virus 1 Singapore/S275/1990) stood at 16.9 nM.
Regarding ALVSDCASTI, the dissociation constant Kd in assay [1] (setting [10]) came to 94.2 nM; in assay [2] (setting [10]), 240 nM; in assay [3] (setting [10]) it was 52.1 nM.
Consider YLGPRVCWL, for which the Kd was determined as 0.901 nM in assay [1] (setting [10]), 23.2 nM in assay [2] (setting [10]) and 3.36 nM in assay [3] (setting [10]).
Take KNATWCLEV: the equilibrium dissociation constant (Kd) in assay [1] (setting [13]) was 1610 nM; in assay [2] (setting [13]) it was 2310 nM; in assay [3] (setting [13]), 7010 nM.
In the case of KLPTLFGRGV, the equilibrium dissociation constant (Kd) in assay [1] (setting [10]) is 190 nM; in assay [2] (setting [10]), 52.6 nM; in assay [3] (setting [10]), 32.6 nM.
The corresponding values for LINLVQYRI are 311 nM, 5340 nM and 583 nM.
As to LDFAKVASV, the figures for the equilibrium dissociation constant (Kd) in assay [1] (setting [14]), in assay [2] (setting [14]) and in assay [3] (setting [14]) were 61.2 nM, 10600 nM and 452 nM, respectively.
Take FICNLLLLFV: the dissociation constant Kd turned out to be 2.47 nM in assay [1] (setting [9]), 3.96 nM in assay [2] (setting [9]) and 14.6 nM in assay [3] (setting [9]).
Consider LNISGYNFSL, for which the figures for the Kd in assay [1] (setting [15]), in assay [2] (setting [15]) and in assay [3] (setting [15]) were 15.5 nM, 420 nM and 4550 nM, respectively.
In the case of AVLDDGIYRI, the Kd in assay [2] (setting [12]) amounted to 10.5 nM.
Turning to FLLVTLAIL, the Kd in assay [1] (setting [9]) worked out at 0.645 nM; in assay [2] (setting [9]), 0.476 nM; in assay [3] (setting [9]), 0.97 nM.
NLDDVYSYI: the Kd was determined as 0.722 nM in assay [1] (setting [16]), 91.8 nM in assay [2] (setting [16]) and 96 nM in assay [3] (setting [16]).
Take TTIGTIAGGV: the Kd in assay [1] (setting [10]) stood at 741 nM; in assay [2] (setting [10]) it was 84.3 nM; in assay [3] (setting [10]), 42.6 nM.
The corresponding values for YVHEGVSYEV are 12.9 nM, 9.08 nM and 71 nM.
ELPVKTDIV: the Kd in assay [1] (setting [10]) was at least 23000 nM; in assay [2] (setting [10]) it was 11500 nM; in assay [3] (setting [10]), 8060 nM.
Turning to SQMETDFLEL, the Kd was 227 nM in assay [1] (setting [9]), 20.6 nM in assay [2] (setting [9]) and 597 nM in assay [3] (setting [9]).
On to AIKQYGDIDL, for which the dissociation constant (Kd) was at least 23400 nM in assay [1] (setting [10]), at least 69800 nM in assay [2] (setting [10]) and at least 46400 nM in assay [3] (setting [10]).
For DVEKRILNTI the same measures were at least 21000 nM, 10800 nM and 12600 nM.
The corresponding values for KADAVVADL are 5140 nM, 2210 nM and 12400 nM.
On to FVFDRPLPV, for which the dissociation constant (Kd) in assay [2] (source organism: Homo sapiens) came to 2.38 nM.
Take TTLLNETAKV: the dissociation constant (Kd) was found to be 1640 nM in assay [1] (setting [10]), 1650 nM in assay [2] (setting [10]) and 0.17 nM in assay [3] (setting [10]).
Turning to TLIMIGSNA, the dissociation constant (Kd) in assay [3] (source organism: Dengue virus 3 Martinique/1243/1999) turned out to be 32 nM.
In the case of GLFGKGGIV, the dissociation constant (Kd) in assay [3] (setting [11]) is 11 nM.
On to AMHTALTGA, for which, in assay [3] (setting [11]), the Kd worked out at 15.1 nM.
As for GVVTTSGTYV, the Kd in assay [2] (setting [12]) came out at 665 nM.
With STDNAVYQCR, the Kd in assay [4] (setting [10]) was 427 nM; in assay [5] (setting [10]) it was 35.4 nM; in assay [6] (setting [10]), 5720 nM; in assay [7] (setting [10]), 2890 nM; in assay [8] (setting [10]) it was 81.3 nM.
Turning to MTSWLDFSH, the equilibrium dissociation constant (Kd) was 176 nM in assay [4] (setting [17]); 116 nM in assay [5] (setting [17]); 548 nM in assay [6] (setting [17]); 13600 nM in assay [7] (setting [17]); 3.36 nM in assay [8] (setting [17]).
In the case of VSLKKTNDK, the Kd in assay [4] (setting [10]) is 8770 nM; in assay [5] (setting [10]) it was 32.1 nM; in assay [6] (setting [10]) it was 193 nM; in assay [7] (setting [10]), at least 54800 nM; in assay [8] (setting [10]) it was 19400 nM.

Broadly, the Kd is the equilibrium constant for the complex coming apart.
